Test results taken from US20060263349A1.

Molecular target: human CD20 on WIL2-S B lymphoblast cells (human) (UniProt P11836)
Experiment: cell-based or functional assay

Chain of UniProt P11836 (P11836 whole entry): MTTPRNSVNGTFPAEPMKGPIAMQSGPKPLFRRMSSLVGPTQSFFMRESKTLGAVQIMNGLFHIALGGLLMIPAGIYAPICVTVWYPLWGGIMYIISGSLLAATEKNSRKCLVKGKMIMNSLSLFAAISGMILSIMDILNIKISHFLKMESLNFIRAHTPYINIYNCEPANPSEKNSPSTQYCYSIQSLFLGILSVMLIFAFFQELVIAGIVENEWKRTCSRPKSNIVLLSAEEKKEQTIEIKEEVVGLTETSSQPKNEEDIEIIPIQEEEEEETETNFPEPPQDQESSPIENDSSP

- CDC activity above background cell lysis at 0.4 µg/mL Rituximab: 25 to 30%
- Rituximab concentration at maximal cell lysis (CDC, WIL2-S cells, … GLO): 5 µg/mL
- percentage of live cells remaining at 1 µg/mL Rituximab (control): 40%
Substance: Rituximab (antibody)
